From US5084274A, “Inhibition of arterial thrombotic occlusion or thromboembolism” (Scripps Clinic and Research Foundation, priority 1987, dated 1992)

Key:
[1] = system: platelet deposition in the Dacron graft; experiment: Platelet deposition (thrombus formation) in Dacron graft, arterial thrombosis model, 111In-labeled platelets; type: in vivo, baboon; conditions: 1 mg of t-PA (0.1 mg/kg/hour) infusion; previous studies, same model
Method: Permanent arteriovenous shunts were prepared between the femoral artery and vein using 3 mm i.d. Silastic tubing Subsequent interposition of 5 cm long, 4 mm i.d. Dacron vascular grafts served as thrombogenic surface, inducing continuous platelet-fibrinthrombus formation until progressive occlusion of the graft at 70±20 min.
All baboons underwent at least one control experiment prior to APC administration. The APC was given by injecting one-fourth to one-third of the total PC dose as a bolus and the remaining three-fourths to two-thirds of the dose as continuous infusion for one hour. The interposition of the graft and bolus injection were made at time=0 and APC was administered at the proximal site of the Silastic shunt. The experiments were divided into three groups; the "low dose" APC group received 2.0-3.4 mg (total), the "high dose" APC group received 11 mg (total), and the combination group received 2.1 mg APC plus 1.3 mg t-PA (total).
Platelet Deposition in the Dacron Graft
The deposition of ^III In-labeled Platelets was detected by scintillation camera images of the graft. […] Inhibition of platelet deposition in treated animals was expressed as % of total number of platelets deposited in the control experiments at 30 and 60 minutes timepoints.

[2] = system: acute myocardial infarction / occluded coronary arteries; conditions: cited from earlier work

B1: t-PA: t-PA from a melanoma cell line, provided by Dr. Desire Collen (Leuven, Belgium) (protein, UniProt P00750 36-562, looked up)
Tissue-type plasminogen …: SYQVICRDEKTQMIYQQHQSWLRPVLRSNRVEYCWCNSGRAQCHSVPVKSCSEPRCFNGGTCQQALYFSDFVCQCPEGFAGKCCEIDTRATCYEDQGISYRGTWSTAESGAECTNWNSSALAQKPYSGRRPDAIRLGLGNHNYCRNPDRDSKPWCYVFKAGKYSSEFCSTPACSEGNSDCYFGNGSAYRGTHSLTESGASCLPWNSMILIGKVYTAQNPSAQALGLGKHNYCRNPDGDAKPWCHVLKNRRLTWEYCDVPSCSTCGLRQYSQPQFRIKGGLFADIASHPWQAAIFAKHRRSPGERFLCGGILISSCWILSAAHCFQERFPPHHLTVILGRTYRVVPGEEEQKFEVEKYIVHKEFDDDTYDNDIALLQLKSDSSRCAQESSVVRTVCLPPADLQLPDWTECELSGYGKHEALSPFYSERLKEAHVRLYPSSRCTSQHLLNRTVTDNMLCAGDTRSGGPQANLHDACQGDSGGPLVCLNDGRMTLVGIISWGLGCGQKDVPGVYTKVTNYLDWIRDNMRP
Antiplatelet effect (in words, FIG. 8) [1]: intermediate antiplatelet effect | Patients with reocclusion after discontinuing t-PA infusion ([2]; after successful thrombolytic reperfusion, despite full-dose heparin therapy): between one-four and one-third of patients | Thrombolysis in acute myocardial infarction (in words) ([2]; infusion into humans): effective thrombolysis
